Results on 3 substances are retold here after patent US20080213284A1.

For assay [1], the target named is receptors in NIH 3T3 cells (not identified in the filing). The experiment in a line: flow cytometry on NIH 3T3 cells, FITC anti-human IgG Fc.
Assay [2] concerns the target receptor on VERO E6 cells (not identified in the filing).
Assay [3] shares this target. In words: flow cytometry on VERO E6 cells, FITC anti-human IgG Fc.

Substance “S3-Fc fusion protein (from UniProt P59594 667-999)” registered a concentration at which it bound in assay [1] of 0.1 µg/mL.
Regarding “S2-Fc fusion protein (from UniProt P59594 334-666)”, in assay [2], the avidity stood at 1 µM. Further, the concentration at which it bound in assay [1] came to 1 µg/mL; in assay [3], 0.1 µg/mL.
For the substance “S1-Fc fusion protein (from UniProt P59594 14-333)”, in assay [3], the concentration at which it bound came to 1 µg/mL.
